According to article PMC7337897:

Biological target: E2F1 (UniProt Q01094)
Experiment: proximity ligation; in situ PLA in fixed, permeabilised H1299 cells, under normal (EV) and GAr-induced mRNA translation stress conditions; Duolink PLA kit; the antibodies of the protein-protein PLA are not told

Chain of UniProt Q01094 (Q01094 whole entry): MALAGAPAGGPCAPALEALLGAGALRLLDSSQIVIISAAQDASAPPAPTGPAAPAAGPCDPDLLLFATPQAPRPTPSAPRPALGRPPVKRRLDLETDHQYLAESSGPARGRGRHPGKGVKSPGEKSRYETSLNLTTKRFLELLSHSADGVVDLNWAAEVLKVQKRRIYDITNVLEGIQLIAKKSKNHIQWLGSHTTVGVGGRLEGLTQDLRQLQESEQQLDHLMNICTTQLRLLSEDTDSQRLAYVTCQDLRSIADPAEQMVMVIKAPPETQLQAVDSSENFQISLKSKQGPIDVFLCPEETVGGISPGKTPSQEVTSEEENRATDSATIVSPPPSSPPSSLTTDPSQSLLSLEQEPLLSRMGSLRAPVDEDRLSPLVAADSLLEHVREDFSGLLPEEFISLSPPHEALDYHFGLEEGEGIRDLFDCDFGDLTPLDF

PLA interactions per cell (interactions per cell): 20
Substance: MDM2 (from UniProt Q00987 1-491) (natural protein)
